Results as given in article PMC4616025, “Identification of a phosphinothricin-resistant mutant of rice glutamine synthetase using DNA shuffling” (Scientific Reports, 2015).

Substrate: N[C@@H](CCC(=O)O)C(=O)O
Assay: purified protein
Type: biochemical, Oryza sativa
Conditions: general assay: 5 mM ATP, 30 mM hydroxylamine, 50 mM MgCl2, 100 mM Tris-HCl pH 7.5, 37 °C, Km measured as in a cited method

B1: OsGS1S (Oryza sativa Japonica Group) (protein)
chain: MASLTDLVNLNLSDTTEKIIAEYIWIGGSGMDLRSKARTLSGPVTDPSKLPKWNYDGSSTGQAPGEDSEVILYPQAIFKDPFRKGNNILVMCDCYTPAGEPIPTNKRHNAAKIFSSPEVASEEPWYGIEQEYTLLQKDINWPLGWPVGGFPGPQGPYYCGIGADKSFGRDIVDSHYKACLYAGINISGINGEVMPGQWEFQVGPSVGISAGDQVWVARYILERITEIAGVVVSFDPKPIPGDWNGAGAHTNYSTKSMRNDGGYEIIKSAIEKLKLRHKEHISAYGEGNERRLTGRHETADINTFSWGVANRGASVRVGRETEQNGKGYFEDRRPASNMDPYIVTSMIAETTIIWKP
notes: full-length, plant-codon-optimized synthetic gene (PTDS), vector pYM4087 with six-histidine tag, expressed in E. coli BL21(DE3), Ni-NTA purified; forward primer atggcttctctcaccga
Q: With B1 as the protein, how does the Km read?
A: The Km was 1.22 ± 0.011 mM.

B2: OsGS1S (Oryza sativa Japonica Group; R295K) (protein)
chain: MASLTDLVNLNLSDTTEKIIAEYIWIGGSGMDLRSKARTLSGPVTDPSKLPKWNYDGSSTGQAPGEDSEVILYPQAIFKDPFRKGNNILVMCDCYTPAGEPIPTNKRHNAAKIFSSPEVASEEPWYGIEQEYTLLQKDINWPLGWPVGGFPGPQGPYYCGIGADKSFGRDIVDSHYKACLYAGINISGINGEVMPGQWEFQVGPSVGISAGDQVWVARYILERITEIAGVVVSFDPKPIPGDWNGAGAHTNYSTKSMRNDGGYEIIKSAIEKLKLRHKEHISAYGEGNERRLTGKHETADINTFSWGVANRGASVRVGRETEQNGKGYFEDRRPASNMDPYIVTSMIAETTIIWKP
notes: as for B1
Q: How did the Km (stated gain) turn out when B2 was run?
A: Its Km is 8.04 ± 0.015 mM.

B3: OsGS1S (Oryza sativa Japonica Group; A63E/R295K/T293A/V193A) (protein)
chain: MASLTDLVNLNLSDTTEKIIAEYIWIGGSGMDLRSKARTLSGPVTDPSKLPKWNYDGSSTGQEPGEDSEVILYPQAIFKDPFRKGNNILVMCDCYTPAGEPIPTNKRHNAAKIFSSPEVASEEPWYGIEQEYTLLQKDINWPLGWPVGGFPGPQGPYYCGIGADKSFGRDIVDSHYKACLYAGINISGINGEAMPGQWEFQVGPSVGISAGDQVWVARYILERITEIAGVVVSFDPKPIPGDWNGAGAHTNYSTKSMRNDGGYEIIKSAIEKLKLRHKEHISAYGEGNERRLAGKHETADINTFSWGVANRGASVRVGRETEQNGKGYFEDRRPASNMDPYIVTSMIAETTIIWKP
notes: as for B1
Q: With B3 as the protein, how does the Km (stated gain) read?
A: Its Km is 7.99 ± 0.021 mM.
